Test results published in publication PMC7179087 (Biochemistry, 2019).

Columns and labels:
Conditions in all cases: adenylation; co-substrate ATP
PvfC-AWH6 = assay: ATP-[…]PPi exchange, steady-state kinetics; assay type: biochemical, Pseudomonas fluorescens
PvfCPf0-1 = system: PvfCPf0-1
CC(C)C[C@H](N)C(=O)O [1] = assay: purified protein
CC(C)[C@H](N)C(=O)O [2] = assay: purified protein
CC[C@H](C)[C@H](N)C(=O)O [3] = assay: purified protein
CC(C)C[C@H](N)C(=O)O [4] = assay: purified protein; assay type: biochemical, Pseudomonas entomophila
CC(C)[C@H](N)C(=O)O [5] = assay: purified protein; assay type: biochemical, Pseudomonas entomophila
CC[C@H](C)[C@H](N)C(=O)O [6] = assay: purified protein; assay type: biochemical, Pseudomonas entomophila

CC(C)C[C@H](N)C(=O)O [L-Leu]
Km (PvfC-AWH6): 2100 ± 600 µM

CC(C)[C@H](N)C(=O)O [L-Val]
Km (PvfCPf0-1): 2400 ± 800 µM

PvfCL48 (Pseudomonas entomophila L48)
Km (CC(C)C[C@H](N)C(=O)O [1]): 7000 ± 3000 µM | kcat (CC(C)C[C@H](N)C(=O)O [1]): 0.65 ± 0.1 s⁻¹ | kcat/Km (CC(C)C[C@H](N)C(=O)O [1]): 93 M⁻¹ s⁻¹ | Km (CC(C)[C@H](N)C(=O)O [2]): 1200 ± 800 µM | kcat (CC(C)[C@H](N)C(=O)O [2]): 13.1 ± 0.7 s⁻¹ | kcat/Km (CC(C)[C@H](N)C(=O)O [2]): 11000 M⁻¹ s⁻¹ | Km (CC[C@H](C)[C@H](N)C(=O)O [3]): 8000 ± 2000 µM | kcat (CC[C@H](C)[C@H](N)C(=O)O [3]): 1.3 ± 0.2 s⁻¹ | kcat/Km (CC[C@H](C)[C@H](N)C(=O)O [3]): 160 M⁻¹ s⁻¹

PvfCL48 (Pseudomonas entomophila L48; A381S/I467L/L384I/V444M)
Km (CC(C)C[C@H](N)C(=O)O [4]): 15000 ± 9000 µM | kcat (CC(C)C[C@H](N)C(=O)O [4]): 2.2 ± 0.8 s⁻¹ | kcat/Km (CC(C)C[C@H](N)C(=O)O [4]): 150 M⁻¹ s⁻¹ | Km (CC(C)[C@H](N)C(=O)O [5]): 1200 ± 700 µM | kcat (CC(C)[C@H](N)C(=O)O [5]): 0.03 ± 0.01 s⁻¹ | kcat/Km (CC(C)[C@H](N)C(=O)O [5]): 25 M⁻¹ s⁻¹

PvfCL48 (Pseudomonas entomophila L48; V444I)
Km (CC(C)C[C@H](N)C(=O)O [4]): 3000 ± 1000 µM | kcat (CC(C)C[C@H](N)C(=O)O [4]): 0.71 ± 0.09 s⁻¹ | kcat/Km (CC(C)C[C@H](N)C(=O)O [4]): 240 M⁻¹ s⁻¹ | Km (CC(C)[C@H](N)C(=O)O [5]): 1500 ± 200 µM | kcat (CC(C)[C@H](N)C(=O)O [5]): 10.7 ± 0.5 s⁻¹ | kcat/Km (CC(C)[C@H](N)C(=O)O [5]): 7100 M⁻¹ s⁻¹ | Km (CC[C@H](C)[C@H](N)C(=O)O [6]): 3700 ± 700 µM | kcat (CC[C@H](C)[C@H](N)C(=O)O [6]): 1.2 ± 0.09 s⁻¹ | kcat/Km (CC[C@H](C)[C@H](N)C(=O)O [6]): 320 M⁻¹ s⁻¹
